Patent US20250361274A1, “PEPTIDE AND PEPTIDE-CONTAINING AGENT” (PEPTIDREAM INC., priority 2022, published 2025)
Read-outs that look alike come from different tables or passages of the source. Numbered stars: 1 amine (or outer) side, 2 acyl side, 3 side chain; on linkers, the order of the positions; unused ones are H or OH. Bridge positions count the residues as written; N and C are the ends. Square brackets hold non-standard residues; d marks the D form. Ends that are not written are not given here. KCOpipzaa = N6-(4-(carboxymethyl)piperazine-1-carbonyl)-L-lysine, O=C(NCCCC[C@H](N[*:1])C(=O)[*:2])N1CCN(CC(=O)[*:3])CC1; 3Pal(6-Ph) = N[C@@H](Cc1ccc(-c2ccccc2)nc1)C(=O)O; Phe(4-COOH) = N[C@@H](Cc1ccc(C(=O)O)cc1)C(=O)O; Bip = N[C@@H](Cc1ccc(-c2ccccc2)cc1)C(=O)O; Ala(4-THP) = N[C@@H](CC1CCOCC1)C(=O)O; Hyp = O=C(O)[C@@H]1C[C@@H](O)CN1; βAla = NCCC(=O)O

What was measured:
BMP4 [1] = target: T1, BMP4 (Homo sapiens, UniProt P12644); test: Intermolecular interaction by surface plasmon resonance (SPR), immobilized BMP4; assay type: binding; settings: which BMP is not specified
T1 sequence (P12644 293-408): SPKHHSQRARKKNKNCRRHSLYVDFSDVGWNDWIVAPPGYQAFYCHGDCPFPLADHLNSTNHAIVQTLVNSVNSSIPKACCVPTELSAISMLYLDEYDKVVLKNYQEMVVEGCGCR
Procedure: The test of the intermolecular interaction by the surface plasmon resonance (SPR) of each of the peptides synthesized in Examples 2 and 3 against BMP4/BMP7 was performed by the following manner. The test method is specifically shown as follows.
A CM5 sensor chip (Cytiva) was inserted into a BiacoreT200 (Cytiva). Three priming runs were performed using running buffer: HBS-EP+ (Cytiva). The system was then equilibrated at a flow rate of 30 μL/min. Subsequently, 50 μL of 60 mM EDC solution (Cytiva) and 50 μL of 650 mM NHS solution (Cytiva) were mixed and were allowed to react at a flow rate of 10 μL/min for 420 seconds. The resultant was diluted with a 10 mM acetic acid solution (pH 5.0), to prepare 150 μL of 0.2 μM BMP4/BMP7 solution. The solution was allowed to react at a flow rate of 10 μL/min for 420 seconds, and the BMP4/BMP7 was immobilized in a CM5 sensor chip. After immobilization, capping was performed by reacting with 1.0 M ethanolamine aqueous solution (Cytiva) at a flow rate of 10 μL/min for 420 seconds. […]
(§1) The kinetics evaluation model was Single Cycle Kinetics, and curve fitting was performed using Biacore T200 Evaluation Software Version 3.0 (Cytiva). The binding of peptides to BMP4/BMP7 was evaluated by performing least-squares curve fitting on the obtained sensorgram to calculate the KD value.

BMP4 [2] = target: T2, BMP4 (UniProt P12644 293-408); test: cell-based or functional assay
T2 sequence (looked up): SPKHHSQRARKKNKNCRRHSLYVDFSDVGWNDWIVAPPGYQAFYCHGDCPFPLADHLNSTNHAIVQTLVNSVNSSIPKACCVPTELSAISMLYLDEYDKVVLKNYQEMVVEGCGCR

BMP7 [3] = target: T3, BMP7 (UniProt P18075 293-431); test: cell-based or functional assay
T3 sequence (looked up): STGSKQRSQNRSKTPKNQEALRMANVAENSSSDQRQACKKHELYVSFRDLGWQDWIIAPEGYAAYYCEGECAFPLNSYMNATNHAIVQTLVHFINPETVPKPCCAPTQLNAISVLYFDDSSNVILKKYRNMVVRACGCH

BMP4 [4] = target: T2, BMP4; test: cell-based or functional assay; remark: listed apart in the source
BMP7 [5] = target: T3, BMP7; test: cell-based or functional assay; remark: listed apart in the source
BMP4 [6] = target: T2, BMP4; test: cell-based or functional assay; remark: listed apart in the source
BMP7 [7] = target: T3, BMP7; test: cell-based or functional assay; remark: listed apart in the source
BMP2 = BMP2 (UniProt P12643 283-396); test: cell-based or functional assay
BMP7 [8] = target: T3, BMP7; test: SPR (Biacore T200), BMP7 amine-coupled on CM5 chip, peptide as analyte, single cycle kinetics
Procedure: (§2) A CM5 sensor chip (Cytiva) was inserted into a BiacoreT200 (Cytiva). Three priming runs were performed using running buffer: HBS-EP+ (Cytiva). The system was then equilibrated at a flow rate of 30 μL/min. Subsequently, 50 μL of 60 mM EDC solution (Cytiva) and 50 μL of 650 mM NHS solution (Cytiva) were mixed and were allowed to react at a flow rate of 10 μL/min for 420 seconds. The resultant was diluted with a 10 mM acetic acid solution (pH 5.0), to prepare 150 μL of 0.2 μM BMP4/BMP7 solution. The solution was allowed to react at a flow rate of 10 μL/min for 420 seconds, and the BMP4/BMP7 was immobilized in a CM5 sensor chip. After immobilization, capping was performed by reacting with 1.0 M ethanolamine aqueous solution (Cytiva) at a flow rate of 10 μL/min for 420 seconds. A liquid prepared by dissolving each peptide at 10 mM in a DMSO solution was diluted with a running buffer so that the final concentration of the peptide-dissolved liquid would be 10 μM. Then, the peptide solutions (100 nM, 50 nM, 25 nM, 10 nM, and 5 nM) were prepared. […]
as §1

BMP4 [9] = target: T2, BMP4; test: SPR (Biacore T200), BMP4 amine-coupled on CM5 chip, peptide as analyte, single cycle kinetics
Procedure: as §2, §1

BMP7 [10] = target: T3, BMP7; test: cell-based or functional assay; remark: listed apart in the source
BMP6 = target: T4, BMP6 (UniProt P22004 382-513, limits assumed); test: cell-based or functional assay
T4 sequence (looked up): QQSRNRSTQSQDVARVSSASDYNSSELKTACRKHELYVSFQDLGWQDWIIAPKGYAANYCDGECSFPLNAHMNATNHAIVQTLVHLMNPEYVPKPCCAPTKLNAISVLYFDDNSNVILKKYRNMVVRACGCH

BMP5 = target: T5, BMP5 (UniProt P22003 317-454, limits assumed); test: cell-based or functional assay
T5 sequence (looked up): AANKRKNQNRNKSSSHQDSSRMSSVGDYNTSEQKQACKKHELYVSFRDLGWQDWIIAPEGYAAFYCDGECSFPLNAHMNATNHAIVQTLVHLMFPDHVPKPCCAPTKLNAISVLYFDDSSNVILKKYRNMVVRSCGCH

BMP4 [11] = target: T2, BMP4; test: cell-based or functional assay; remark: listed apart in the source
BMP7 [12] = target: T3, BMP7; test: cell-based or functional assay; remark: listed apart in the source

Chain of BMP2 (P12643 283-396 limits assumed): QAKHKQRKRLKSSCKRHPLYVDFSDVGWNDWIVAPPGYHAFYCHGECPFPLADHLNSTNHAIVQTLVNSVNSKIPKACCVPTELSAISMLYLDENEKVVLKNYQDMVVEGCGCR

Molecule: E-R-V-F4COO-Atp-D-R-Bph-P-Y-P-Bph-Y-F4COO-F4COO-S-C (ERV[Phe(4-COOH)][Ala(4-THP)]DR[Bip]PYP[Bip]Y[Phe(4-COOH)][Phe(4-COOH)]SC) [SEQ ID NO: 1]
- BMP binding activity (in words) (BMP4 [1]): confirmed to have BMP binding activity

Molecule: recombinant Human Noggin Protein (R&D) (from UniProt Q13253 28-232)
- IC50 (nM), SMAD1 phosphorylation in A549 cells (BMP4 [2]): 0.08 nM
- IC50 (nM), SMAD1 phosphorylation in A549 cells (BMP7 [3]): 2.7 nM
- IC50 (nM), SMAD1 phosphorylation in A549 cells (BMP4 [4]): 0.13 nM
- IC50 (nM), SMAD1 phosphorylation in A549 cells (BMP7 [5]): 5.74 nM

B1: BMP4 signal transduction inhibition peptide SEQ ID NO: 277 (Example 8) (peptide)
peptide: {CH2CO}-ERV[Phe(4-COOH)]V[KCOpipzaa]R[3Pal(6-Ph)][KCOpipzaa]Y[Hyp][Bip]Y[Phe(4-COOH)][Phe(4-COOH)]SCG-NH2
modifications: thioether N-17 (inferred)
- IC50 (nM), SMAD1 phosphorylation in A549 cells (BMP4 [6]): 0.073 nM
- IC50 (nM), SMAD1 phosphorylation in A549 cells (BMP7 [7]): 455 nM
- IC50, SMAD1 phosphorylation, BMP2 0.3 nM (BMP2): 0.45 nM

B2: BMP4 signal transduction inhibition peptide No. 84 (SEQ ID NO: 84) (peptide)
peptide: {CH2CO}-ERVYVDR[Bip]PYV[Bip]Y[Phe(4-COOH)][Phe(4-COOH)]SC[βAla][dE]-OH
modifications: thioether N-17
SMILES: CC(C)[C@@H]1NC(=O)[C@H](Cc2ccc(O)cc2)NC(=O)[C@H](C(C)C)NC(=O)[C@H](CCCNC(=N)N)NC(=O)[C@H](CCC(=O)O)NC(=O)CSC[C@@H](C(=O)NCCC(=O)N[C@H](CCC(=O)O)C(=O)O)NC(=O)[C@H](CO)NC(=O)[C@H](Cc2ccc(C(=O)O)cc2)NC(=O)[C@H](Cc2ccc(C(=O)O)cc2)NC(=O)[C@H](Cc2ccc(O)cc2)NC(=O)[C@H](Cc2ccc(-c3ccccc3)cc2)NC(=O)[C@H](C(C)C)NC(=O)[C@H](Cc2ccc(O)cc2)NC(=O)[C@@H]2CCCN2C(=O)[C@H](Cc2ccc(-c3ccccc3)cc2)NC(=O)[C@H](CCCNC(=N)N)NC(=O)[C@H](CC(=O)O)NC1=O
notes: thioether ring between N-terminal chloroacetyl and Cys17
- Kd (BMP7 [8]): 21.7 nM
- Kd (BMP4 [9]): 2.1 nM

B3: BMP4 signal transduction inhibition peptide No. 177 (SEQ ID NO: 177) (peptide)
peptide: {CH2CO}-ERV[Phe(4-COOH)][Ala(4-THP)]DR[Bip]PYP[Bip]Y[Phe(4-COOH)][Phe(4-COOH)]SC[βAla][dE]-OH
modifications: thioether N-17
SMILES: CC(C)[C@@H]1NC(=O)[C@H](CCCNC(=N)N)NC(=O)[C@H](CCC(=O)O)NC(=O)CSC[C@@H](C(=O)NCCC(=O)N[C@H](CCC(=O)O)C(=O)O)NC(=O)[C@H](CO)NC(=O)[C@H](Cc2ccc(C(=O)O)cc2)NC(=O)[C@H](Cc2ccc(C(=O)O)cc2)NC(=O)[C@H](Cc2ccc(O)cc2)NC(=O)[C@H](Cc2ccc(-c3ccccc3)cc2)NC(=O)[C@@H]2CCCN2C(=O)[C@H](Cc2ccc(O)cc2)NC(=O)[C@@H]2CCCN2C(=O)[C@H](Cc2ccc(-c3ccccc3)cc2)NC(=O)[C@H](CCCNC(=N)N)NC(=O)[C@H](CC(=O)O)NC(=O)[C@H](CC2CCOCC2)NC(=O)[C@H](Cc2ccc(C(=O)O)cc2)NC1=O
notes: as for B2
- IC50, SMAD1 phosphorylation, BMP2 0.3 nM (BMP2): 0.21 nM
- IC50, SMAD1 phosphorylation, BMP7 10 nM (BMP7 [10]): 1.43 nM
- IC50, SMAD1 phosphorylation, BMP6 3 nM (BMP6): 3.9 nM
- IC50, SMAD1 phosphorylation, BMP5 2 nM (BMP5): 9.17 nM
- Kd (BMP7 [8]): 2.3 nM
- Kd (BMP4 [9]): 0.4 nM
- IC50 (nM), SMAD1 phosphorylation in A549 cells (BMP4 [11]): 0.053 nM
- IC50 (nM), SMAD1 phosphorylation in A549 cells (BMP7 [12]): 1.4 nM
